One molecule from patent US20250376536A1 (Bristol-Myers Squibb, published 2025) can be followed below.

Assay [1] concerns the target T1, cyno CD40 on B cells (cynomolgus monkey, UniProt G7PG38 21-278).
T1 construct: whole, on cells; also called Cyno CD40-positive B cell
Put plainly: binding to cyno CD40-positive B cells.

The target in assay [2] is T2, human CD40 on cells (human, UniProt P25942 21-277).
T2 construct: Endogenous CD40 on human primary cells and Raji cells; also called CD40-positive macrophage; CD40-positive B cell
Put plainly: binding to human CD40-positive B cells.

Assay [3] addresses T3, FcγRIIA (CD32a) (UniProt P12318 34-217, limits assumed).
T3 sequence (looked up): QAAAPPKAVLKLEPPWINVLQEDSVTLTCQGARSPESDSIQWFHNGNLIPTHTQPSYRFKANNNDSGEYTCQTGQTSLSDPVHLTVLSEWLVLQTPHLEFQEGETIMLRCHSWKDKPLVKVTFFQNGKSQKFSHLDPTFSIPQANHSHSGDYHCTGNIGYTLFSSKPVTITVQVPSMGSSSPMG
In words: SPR, Biacore S200, antibody captured on Protein A chip, FcγR as analyte. Here is the method: (§1) Binding of CD40.9H3×FAP.LP62 and the analog of RO7300490 to various Fc gamma receptors (FcγR1 (CD64), FcγRIIIA (CD16a), FcγRIIIB (CD16b), FcγRIIA (CD32a), FcγRIIB (CD32b)) was determined in an analyte/capture assay in vitro. Briefly, an SPR assay was performed using a Biacore S200 with a Biacore Series S Protein A chip (Cytiva). All antibodies were prepared at 4.0 μg/ml in 1×HBS-EP+ running buffer (Cytiva) and captured onto flow cells 2, 3, and 4 through a 60 second contact time at 10 μl/min. An analyte series of the FcγRs (BMS In-House Produced) were prepared at 10,000 nM in 1×HBS-EP+ with eight, three-fold dilutions. Kinetic measurements were conducted with a 120 second association followed by a 120 second dissociation at 30 μl/min. Surface regeneration was preformed by 60 second contact time of 50 mM Glycine pH 1.5 solution (Cytiva) at 30 μl/min. Data was processed in Biacore Insight Evaluation Version 5 (Cytiva). Sensorgrams were double referenced and globally fit to a 1:1 Langmuir model were applicable. Where 1:1 model was not sufficient to describe the interaction (fast-on and fast-off rates), steady state equilibrium fitting was used to determine the equilibrium constant.

In assay [4] the target is T4, FcγRIIB (CD32b) (UniProt P31994 43-217, limits assumed).
T4 sequence (looked up): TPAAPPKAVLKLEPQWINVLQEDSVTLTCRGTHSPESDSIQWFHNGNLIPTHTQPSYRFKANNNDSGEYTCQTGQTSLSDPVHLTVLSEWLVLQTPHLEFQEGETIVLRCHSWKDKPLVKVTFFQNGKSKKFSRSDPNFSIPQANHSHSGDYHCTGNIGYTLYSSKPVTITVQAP
Described as above. Here is the method: as §1

In assay [5] the target is T5, FcγRI (CD64) (UniProt P12314 16-288, limits assumed).
T5 construct: also called FcγR1 (CD64); FcγR1
Described as above. Here is the method:
as §1

Assay [6] deals with T6, human FAP on cells (human, UniProt Q12884 1-760).
T6 sequence: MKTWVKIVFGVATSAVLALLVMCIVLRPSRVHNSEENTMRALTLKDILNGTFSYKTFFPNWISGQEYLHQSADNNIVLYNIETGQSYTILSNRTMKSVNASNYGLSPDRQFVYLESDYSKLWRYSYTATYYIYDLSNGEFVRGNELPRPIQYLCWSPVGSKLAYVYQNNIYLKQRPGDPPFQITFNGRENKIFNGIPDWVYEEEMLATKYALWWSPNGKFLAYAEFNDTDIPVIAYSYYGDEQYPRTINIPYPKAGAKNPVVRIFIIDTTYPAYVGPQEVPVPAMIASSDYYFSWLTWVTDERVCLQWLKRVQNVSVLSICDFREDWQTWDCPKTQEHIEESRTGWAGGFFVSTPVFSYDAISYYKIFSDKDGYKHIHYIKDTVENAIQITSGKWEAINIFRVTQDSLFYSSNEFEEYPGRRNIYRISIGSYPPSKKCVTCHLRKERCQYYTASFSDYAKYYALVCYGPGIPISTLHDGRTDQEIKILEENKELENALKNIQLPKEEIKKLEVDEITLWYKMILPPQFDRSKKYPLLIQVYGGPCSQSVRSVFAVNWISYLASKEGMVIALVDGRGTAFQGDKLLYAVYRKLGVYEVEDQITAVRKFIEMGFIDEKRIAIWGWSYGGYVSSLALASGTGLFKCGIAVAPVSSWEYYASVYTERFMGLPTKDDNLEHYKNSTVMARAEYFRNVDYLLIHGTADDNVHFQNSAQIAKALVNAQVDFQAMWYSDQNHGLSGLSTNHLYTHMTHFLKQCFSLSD
In words: cell-based or functional assay.

Assay [7] concerns the target T7, soluble FAP (human, UniProt Q12884 26-760, limits assumed).
T7 sequence: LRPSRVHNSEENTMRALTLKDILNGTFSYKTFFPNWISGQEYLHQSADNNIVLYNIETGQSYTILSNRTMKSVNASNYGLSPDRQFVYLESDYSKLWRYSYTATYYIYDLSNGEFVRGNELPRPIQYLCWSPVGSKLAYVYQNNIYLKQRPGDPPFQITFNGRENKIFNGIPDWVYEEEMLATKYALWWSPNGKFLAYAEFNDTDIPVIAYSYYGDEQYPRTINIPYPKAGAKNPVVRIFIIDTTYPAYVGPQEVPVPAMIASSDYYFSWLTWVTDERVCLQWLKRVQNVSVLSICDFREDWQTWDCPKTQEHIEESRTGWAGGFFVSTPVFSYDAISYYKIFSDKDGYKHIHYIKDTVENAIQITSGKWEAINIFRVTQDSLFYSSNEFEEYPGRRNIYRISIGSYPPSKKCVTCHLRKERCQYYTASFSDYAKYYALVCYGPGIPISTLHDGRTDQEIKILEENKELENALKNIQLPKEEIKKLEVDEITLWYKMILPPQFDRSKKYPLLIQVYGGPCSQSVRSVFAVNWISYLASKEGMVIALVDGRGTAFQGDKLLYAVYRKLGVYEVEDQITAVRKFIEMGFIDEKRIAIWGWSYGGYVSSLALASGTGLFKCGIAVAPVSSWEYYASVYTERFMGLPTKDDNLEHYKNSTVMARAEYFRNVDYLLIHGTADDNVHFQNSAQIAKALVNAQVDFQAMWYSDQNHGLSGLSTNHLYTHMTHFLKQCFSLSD
In words: cell-based or functional assay.

For assay [8], the target named is T8, cyno FAP on HEK cells (cynomolgus monkey).
T8 construct: whole, on cells; also called Cyno FAP-positive HEK cells
In words: binding to cyno FAP-positive HEK cells.

Broadly, the EC50 is the midpoint of the concentration-response curve. Higher therefore signals a need for much substance.

T5 sequence (P12314 16-288 limits assumed): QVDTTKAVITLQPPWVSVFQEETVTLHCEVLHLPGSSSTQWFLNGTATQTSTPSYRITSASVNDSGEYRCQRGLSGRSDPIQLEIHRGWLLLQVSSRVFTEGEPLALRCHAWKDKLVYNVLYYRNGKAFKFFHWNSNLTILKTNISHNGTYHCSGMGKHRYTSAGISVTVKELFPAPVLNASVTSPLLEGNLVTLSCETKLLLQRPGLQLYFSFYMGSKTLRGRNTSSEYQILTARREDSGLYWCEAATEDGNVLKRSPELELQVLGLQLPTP
T2 sequence (P25942 21-277): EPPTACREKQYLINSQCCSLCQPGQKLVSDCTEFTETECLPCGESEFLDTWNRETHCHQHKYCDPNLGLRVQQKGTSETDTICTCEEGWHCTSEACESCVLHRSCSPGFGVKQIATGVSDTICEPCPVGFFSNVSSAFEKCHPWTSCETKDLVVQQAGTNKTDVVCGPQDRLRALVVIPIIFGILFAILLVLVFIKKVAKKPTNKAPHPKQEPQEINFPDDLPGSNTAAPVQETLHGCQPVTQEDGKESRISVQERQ

B1: CD40.9H3×FAP.LP62 bispecific antibody (bispecific antibody, human IgG1, kappa, L234A L235A)
heavy 1: EVQLVESGGGLVQPGGSLRLSCAASGFTFIGYSMNWVRQAPGKGLEWVSYISSYESTIYYADSVKGRFTISRDNAKNSLYLQMNSLRAEDTAVYYCARSRITLVRGVPRYFDLWGRGTLVTVSSASTKGPSVFPLAPSSKSTSGGTAALGCLVKDYFPEPVTVSWNSGALTSGVHTFPAVLQSSGLYSLSSVVTVPSSSLGTQTYICNVNHKPSNTKVDKKVEPKSCDKTHTCPPCPAPEAAGGPSVFLFPPKPKDTLMISRTPEVTCVVVSVSHEDPEVKFNWYVDGVEVHNAKTKPREEQYNSTYRVVSVLTVLHQDWLNGKEYKCKVSNKALPAPIEKTISKAKGQPREPQVYVLPPSREEMTKNQVSLLCLVKGFYPSDIAVEWESNGQPENNYLTWPPVLDSDGSFFLYSKLTVDKSRWQQGNVFSCSVMHEALHNHYTQKSLSLSPG
heavy 2: EVQLVESGGGLVQPGGSLRLSCAASGFTFIGYSMNWVRQAPGKGLEWVSYISSYESTIYYADSVKGRFTISRDNAKNSLYLQMNSLRAEDTAVYYCARSRITLVRGVPRYFDLWGRGTLVTVSSASTKGPSVFPLAPSSKSTSGGTAALGCLVKDYFPEPVTVSWNSGALTSGVHTFPAVLQSSGLYSLSSVVTVPSSSLGTQTYICNVNHKPSNTKVDKKVEPKSCDKTHTCPPCPAPEAAGGPSVFLFPPKPKDTLMISRTPEVTCVVVSVSHEDPEVKFNWYVDGVEVHNAKTKPREEQYNSTYRVVSVLTVLHQDWLNGKEYKCKVSNKALPAPIEKTISKAKGQPREPQVYVYPPSREEMTKNQVSLTCLVKGFYPSDIAVEWESNGQPENNYKTTPPVLDSDGSFALVSKLTVDKSRWQQGNVFSCSVMHEALHNHYTQKSLSLSPGGGSGGGGSGGGGSGGGGSEVQLLESGGGLVQPGGSLRLSCAASGFTFSSRGMSWVRQAPGKCLEWVSFISSSGTYVYYADSVKGRFTISRDNSKNTLYLQMNSLRAEDTAVYYCARDLPRTGVYFGMDVWGQGTTVTVSSGGGGSGGGGSGGGGSGGGGSDIQMTQSPSSLSASVGDRVTITCRASQSIFNYLNWYQQKPGKAPKLLIYGASTLQSGVPSRFSGSGSGTDFTLTISSLQPEDFATYYCQESYSTPYTFGCGTKVEIK
light: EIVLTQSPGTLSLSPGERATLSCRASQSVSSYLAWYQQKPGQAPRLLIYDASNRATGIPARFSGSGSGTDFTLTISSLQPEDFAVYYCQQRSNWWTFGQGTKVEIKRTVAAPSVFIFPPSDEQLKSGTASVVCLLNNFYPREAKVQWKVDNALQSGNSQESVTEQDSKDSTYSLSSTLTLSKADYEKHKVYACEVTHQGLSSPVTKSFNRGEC
notes: 2+1 format: two anti-CD40 9H3 Fabs on an IgG1 Fc with L234A, L235A, D265S and heterodimerization mutations; Ratio 1:1:2
Consider B1, for which the EC50 in assay [1] stood at 4.69 nM; in assay [2] it was 7.53 nM; in assay [8], 3.6 nM. Further, the binding result in assay [3], in assay [4] and in assay [5] was “no binding” throughout. Besides, the “IL12p40 release, human DC + HFF1 co-culture, EC50, soluble FAP 0 ng/mL” value in assay [6] stood at 0.13 nM. For the same molecule, the “IL12p40 release, human DC + HFF1 co-culture, EC50, soluble FAP 120 ng/mL” value in assay [7] was 0.46 nM. Besides, the “IL12p40 release, human DC + HFF1 co-culture, EC50, soluble FAP 480 ng/mL” value in assay [7] stood at 0.8 nM.
